Source: patent US9926369B2, “Methods for treating hepatocellular cancer by administering an anti-Ang-2 antibody” (Regeneron Pharmaceuticals, Inc., priority 2009, dated 2018)

Key:
Monomeric hAng-2FD = molecular target: T1, Monomeric hAng-2FD (Homo sapiens, UniProt O15123); test: SPR binding to monomeric hAng-2FD (Table 8)
T1 sequence (O15123 282-496 limits assumed): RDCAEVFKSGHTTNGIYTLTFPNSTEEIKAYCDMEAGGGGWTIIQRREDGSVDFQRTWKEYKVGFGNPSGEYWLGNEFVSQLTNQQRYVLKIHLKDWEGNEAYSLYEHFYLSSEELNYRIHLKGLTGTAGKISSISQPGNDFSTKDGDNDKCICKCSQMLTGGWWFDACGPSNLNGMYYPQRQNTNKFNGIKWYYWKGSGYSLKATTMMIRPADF
Procedure: Equilibrium dissociation constants (KD values) for the binding of selected purified Ang-2 antibodies to dimeric fibrinogen-like domain of human (SEQ ID NO: 519), mouse (Mus musculus; SEQ ID NO: 520) and monkey (Macca fascicularis; SEQ ID NO: 521) Ang-2 (Ang-2FD) conjugated to human IgG1 (SEQ ID NO:528) were determined by surface kinetics using a real-time biosensor surface plasmon resonance assay. Antibody was captured on a goat anti-mouse IgG polyclonal antibody surface, a goat anti-human κ polyclonal antibody (Southern Biotech, Birmingham, Ala.) surface or a goat anti-human IgG polyclonal antibody (Jackson Immuno Research Lab, West Grove, Pa.) surface created through direct amine coupling to a BIACORE™ CM5 sensor chip to form a captured antibody surface. Varying concentrations (ranging from 50 nM to 6.25 nM) of protein were injected at 100 μl/min over captured antibody surface for 90 seconds. Antigen-antibody binding and dissociation were monitored in real time at room temperature. Kinetic analysis was performed to calculate KD and half-life of antigen/antibody complex dissociation.
In yet another experiment, KD values for selected purified antibodies that bind to wild-type human Ang-2 (hAng-2-WT; SEQ ID NO: 518) and the fibrinogen-like domain of human Ang2 (hAng-2FD) were determined (as described above).

[1] = molecular target: T2, Human Ang-2FD-hFc binding to hTie-2-mFc (Homo sapiens, UniProt O15123); test: ELISA blocking of human Ang-2FD-hFc binding to hTie-2-mFc; assay type: biochemical; conditions: 16.67 nM antibody; 2 nM Ang-2FD-hFc
T2 sequence (O15123 282-496): T1 sequence (O15123 282-496 limits assumed)
Procedure: Tie-2 is a natural receptor for Ang-2. Anti-Ang-2 antibodies were tested for their ability to block Ang-2 binding to human Tie-2 (hTie-2). hTie-2-mFc (a chimeric construct consisting of human Tie-2 conjugated to mouse IgG; SEQ ID NO:525) was coated onto 96-well plates at a concentration of 2 μg/ml and incubated overnight followed by washing four times in wash buffer (PBS with 0.05% Tween-20). The plate was then blocked with PBS (Irvine Scientific, Santa Ana, Calif.) containing 0.5% BSA (Sigma-Aldrich Corp., St. Louis, Mo.) for one hour at room temperature. In a separate plate, purified anti-Ang-2 antibodies, at a starting concentration of 50 nM, were serially diluted by a factor of three across the plate. Human, mouse or monkey Ang-2FD protein conjugated to human IgG (Ang-2FD-hFc) were added to final concentrations of 2 nM, 8 nM, or 2 nM respectively and incubated for one hour at room temperature. The antibody/Ang-2FD-Fc mixture was then added to the plate containing hTie-2-mFc and incubated for one hour at room temperature. Detection of Ang-2FD-hFc bound to hTie-2-mFc protein was determined with Horse-Radish Peroxidase (HRP) conjugated to a-human IgG antibody (Jackson Immuno Research Lab, West Grove, Pa.) and developed by standard colorimetric response using tetramethylbenzidine (TMB) substrate (BD Biosciences, San Jose, Calif.). Absorbance was read at OD450 for 0.1 sec.

MMT tumors = test: MMT tumor growth in SCID mice; assay type: in vivo; conditions: H1H685P 12.5 mg/kg, VEGF Trap 5 mg/kg
Procedure: To provide additional evidence of combination efficacy, the effect of the H1H685P+VEGF Trap combination on the growth of MMT tumors was assessed. 0.5×10^6 MMT cells were implanted subcutaneously into the right hind flank of 6-8 week-old female SCID mice. […] The Fc and H1H685P groups were given 3 doses over 9 days. The VEGF Trap and combination groups were given 4 doses over 12 days. Tumor volumes were measured twice per week over the course of the experiment and tumor weights were measured upon excision of tumors at the end of the experiment (due to their large size, tumors from the Fc and H1H685P groups were collected 3 days before tumors from the VEGF Trap and combination groups). Averages (mean+/−standard deviation) of tumor growth from the beginning of treatment and of tumor weight were calculated for each group. Percent decrease of tumor weight and growth are calculated from comparison to the Fc control group.

hAng-2FD-mFc S-417-I = molecular target: T3, hAng-2FD-mFc S-417-I (Homo sapiens, UniProt O15123, S417I); test: Ang-2FD-mFc point mutant binding experiment (SPR), S-417-I; conditions: S-417-I mutant captured; antibody/peptibody at 100 nM; 25° C.
T3 construct: made in house
Excerpt: (§1) To further characterize binding between hAng2 and anti-hAng2 mAbs of the invention, seven variant hAng2-FD-mFc proteins were generated, each containing a single point mutation. Amino acids selected for mutation were based on the difference in sequence between hAng-2 and hAng-1 in the region that interacts with hTie-2 (FIG. 1). In particular, amino acids within the fibrinogen-like domain (FD) of Ang-2 which are believed to interact with Tie-2 based on crystal structure analysis, but which differ from the corresponding amino acid in Ang-1, were individually mutated to the corresponding hAng-1 residue. The results of this example indicate the amino acid residues of hAng-2 with which the Ang-2 preferential binding antibodies interact.
(§2) In this experiment, each of the seven hAng-2FD-mFc mutant proteins were captured (˜147-283 RU) on an anti-mouse-Fc surface created through direct chemical coupling to a BIACORE™ chip. Then each Ang-2 antibody (or peptibody, as the case may be) at 100 nM was injected over the captured mFc-tagged hAng-2FD protein surface at a flowrate of 50 μl/min for 180 sec, and the dissociation of variant hAng2-FD-mFc and antibody was monitored in real time for 20 min at 25° C.

hAng-2FD-mFc K-432-N = molecular target: T4, hAng-2FD-mFc K-432-N (Homo sapiens, UniProt O15123, K432N); test: Ang-2FD-mFc point mutant binding experiment (SPR), K-432-N; conditions: K-432-N mutant captured; antibody/peptibody at 100 nM; 25° C.
T4 construct: made in house
Excerpt: as §1, §2

T4 sequence (O15123 with tags, fused parts or gaps K432N): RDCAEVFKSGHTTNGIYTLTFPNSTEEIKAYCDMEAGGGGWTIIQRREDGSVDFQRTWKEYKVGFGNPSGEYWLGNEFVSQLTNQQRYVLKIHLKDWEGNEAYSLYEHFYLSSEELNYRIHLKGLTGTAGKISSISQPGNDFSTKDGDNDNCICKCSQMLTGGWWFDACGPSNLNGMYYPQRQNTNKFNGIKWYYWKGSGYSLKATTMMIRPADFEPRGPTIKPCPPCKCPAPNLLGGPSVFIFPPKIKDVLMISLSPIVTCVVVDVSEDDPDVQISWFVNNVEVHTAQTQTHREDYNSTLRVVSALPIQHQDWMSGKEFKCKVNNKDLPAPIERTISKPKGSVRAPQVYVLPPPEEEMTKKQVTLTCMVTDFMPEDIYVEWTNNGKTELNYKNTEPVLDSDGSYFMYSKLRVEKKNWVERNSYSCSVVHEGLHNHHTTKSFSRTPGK
T3 sequence (O15123 with tags, fused parts or gaps S417I): as the sequence (O15123 with tags, fused parts or gaps K432N) above, with S136I, N151K counted along it

With “H1H685P: human anti-Ang-2 antibody, HCVR/LCVR SEQ ID NOs 18/20; also referred to as mAb1 [Antibody H1H685P]” the Kd (Monomeric hAng-2FD) was 0.578 nM, the “Percent Blocking of Ang-2FD Binding to Tie-2, Human Ang-2FD-hFc” value [1] was 93.8% and the “% Decrease in Tumor Growth” value (MMT tumors) was 15%. The “% Decrease in Tumor Weight” value (MMT tumors) was 11%, the “Avg Tumor Growth” value (MMT tumors) was 1135 ± 306 mm^3 and the “Avg Tumor Weight” value (MMT tumors) was 1.409 ± 0.314 g. The Kd (hAng-2FD-mFc S-417-I) was 0.0305 nM, the RU (hAng-2FD-mFc S-417-I) was 127.65 RU and the Kd (hAng-2FD-mFc K-432-N) was 0.014 nM. The RU (hAng-2FD-mFc K-432-N) was 152.68 RU.
